Values quoted from earlier work in paper PMC6844576.

Target: IL-6 receptor (Homo sapiens) (UniProt P08887)
Experiment: 125I-rhIL-6 radioligand binding

UniProt P08887, sequence (P08887 20-365): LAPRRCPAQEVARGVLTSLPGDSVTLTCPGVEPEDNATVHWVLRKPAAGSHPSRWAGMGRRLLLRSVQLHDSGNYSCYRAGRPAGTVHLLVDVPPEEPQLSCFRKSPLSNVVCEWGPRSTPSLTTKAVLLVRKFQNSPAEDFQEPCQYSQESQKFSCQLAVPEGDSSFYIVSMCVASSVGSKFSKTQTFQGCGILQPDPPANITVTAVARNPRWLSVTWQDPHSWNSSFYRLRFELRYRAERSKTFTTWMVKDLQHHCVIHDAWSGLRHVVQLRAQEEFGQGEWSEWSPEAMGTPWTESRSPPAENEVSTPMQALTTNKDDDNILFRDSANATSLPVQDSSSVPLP

Substance: interleukin-6 (from UniProt P05231)
- Kd: 0.44 nM
